Our source for the Kd values is PMC2694229.

In the series the test system is PCBP2. The series can be described thus: competition EMSA. In general terms: Mobility shift assays separate free from complexed probe on a gel.

What is called Kd is the concentration at which binding is half-saturated. Turning to poliovirus stem-loop IV RNA, the dissociation constant (Kd) was 15 nM.
